Data as given in the DeepSol protein solubility set.

Experiment: soluble on expression in E. coli; label from the status in PepcDB or PDB records

Row | Sequence | soluble on expression in E. coli
1 | MGSDKIHHHHHHMIQITPFLDSKRKTPLYVQLYQYIKEGIESGQLKSDTFLPSIRELALHLRVSKNTVEGAYQQLIAEGYVESIPRVGLKILELEATFLCDKGGKQLQNVTMGEIQREHKSIEFDFVYGEIDTAHLPLKVWKRHVQEVLKGASEELLMYGDPFGDWHLRQELSHYLLQSRGVSCRPEQVVITAGTQHAVSLLCQLLSLHGSTVAFEDPGYNGVRSVFINQGCRIAPIPIEADGLSLSRLHESHANIVYVTPSHQLPCGMILPVHKRSLLLEWAYEHEGYIVEDDYDSEFRYQGQPIPALKALDQNEKVIYLGTFSKSFLPSIRVSYMVLPGELVPLYQQKLANYNQAASQLIQRALYTFIKDGDFQRHIRRMKKVYQSKHHTLLKSVKTYLGDRVTVIGEKSGLHVLLNVPGREDHELIEKAMACGVKVYSTKTFWYNPKNQCSSFIMLGFGKLSEEAIKKGIRRLQQAWF | not soluble
2 | TSTMGNLQTAINDKSGTLASQNFLDADEQKRNAYNQAVSAAETILNKQTGPNTAKTAVEQALNNVNNAKHALNGTQNLNNAKQAAITAINGASDLNQKQKDALKAQANGAQRVSNAQDVQHNATELNTA | soluble
3 | SLHNGGLMAGWHLDTKMAQDIVARTMRIIDTNINVMDARGRIIGSGDRERIGELHEGALLVLSQGRVVDIDDAVARHLHGVRQGINLPLRLEGEIVGVIGLTGEPENLRKYGELVCMTAEMMLEQSRLMHLLAQDSRLREELVMNLIQAEENTPALTEWAQRLGIDLNQPRVVAIVEVDSGQLGVDSAMAELQQLQNALTTPERNNLVAIVSLTEMVVLKPALNSFGRWDAEDHRKRVEQLITRMKEYGQLRFRVSLGNYFTGPGSIARSYRTAKTTMVVGKQRMPESRCYFYQDLMLPVLLDSLRGDWQANELARPLARLKTMDNNGLLRRTLAAWFRHNVQPLATSKALFIHRNTLEYRLNRISELTGLDLGNFDDRLLLYVALQLDEER | soluble
4 | SSKKYKLSEIHHLHPEYVRVSEHFKASMKNFKIEKIKKIENSELLDKFTWKKSQMKEEGKLLFYATSRAYVESICSNNFDSFLHETHENKYGKGIYFAKDAIYSHKNCPYDAKNVVMFVAQVLVGKFIEGNITYTSPPPQFDSCVDTRSNPSVFVIFQKDQVYPQYVIEYTED | soluble
5 | MENKVVEEKQVDKIPLMSPCKMGKFELCHRVVLAPLTRQRSYGYIPQPHAILHYSQRSTNGGLLIGEATVISETGIGYKDVPGIWTKEQVEAWKPIVDAVHAKGGIFFCQIWHVGRVSNKDFQPNGEDPISCTDRGLTPQIMSNGIDIAHFTRPRRLTTDEIPQIVNEFRVAARNAIEAGFDGVEIHGAHGYLIDQFMKDQVNDRSDKYGGSLENRCRFALEIVEAVANEIGSDRVGIRISPFAHYNEAGDTNPTALGLYMVESLNKYDLAYCHVVEPRMKTAWEKIECTESLVPMRKAYKGTFIVAGGYDREDGNRALIEDRADLVAYGRLFISNPDLPKRFELNAPLNKYNRDTFYTSDPIVGYTDYPFLETMT | soluble
6 | MGHHHHHHSHMEFPFDVDALFPERITVLDQHLRPPARRPGTTTPARVDLQQQIMTIIDELGKASAKAQNLSAPITSASRMQSNRHVVYILKDSSARPAGKGAIIGFIKVGYKKLFVLDDREAHNEVEPLCILDFYIHESVQRHGHGRELFQYMLQKERVEPHQLAIDRPSQKLLKFLNKHYNLETTVPQVNNFVIFEGFFAHQHRPPAPSLRATRHSRAAAVDPTPAAPARKLPPKRAEGDIKPYSSSDREFLKVAVEPPWPLNRAPRRATPPAHPPPRSSSLGNSPERGPLRPFVPEQELLRSLRLCPPHPTARLLLAADPGGSPAQRRRTR | not soluble
7 | SLTTSTALVLDINNANLDQQQAFAITAANRDEILQAASSIRLGDVMSVHDFGRSATDASYLDTMLEDVKVIDQKESGKQLNEIAFLSRQISDSVQPSDLQRVISRIPIIGFVISRLTFMQRRALNRFDSVKGQMDILADGISSISTGYLEQNVKLDAMYNDVLADIRAQGINIVASKLVIDSIEGELQTRQEEFKKNKTNTLLSIEINDIQYQLDTLKKRRKDMISMQQKSFDDLTMLRMMQQNNLALVDKFRSVEELTLPAAKRGHLIVDALEKQNAGVKLIEAIDDATNALALRQAELVKDNTIRIAKQSHRSVYDAKTLDRISTLMNEAIAEAHAIHKSNSDGHLALEKRAIEWQEERRQRLINGMGKNKLSNH | not soluble
8 | MTTPAPVPRITVLLPVYNGEQYLREALDSLLTQTYRNFSLLAVDDGSTDSSLEILRSIKDPRLSVKVNPRNRGLINTLNESLDLIQSEYVARMDADDIATPYRLEEQLAFMDAHPDVGLCGGYYERFTDTESIVVRPPTTHEDISYALIFDNVMAHNTVMFRRSVLERYRLRYDPAFAYAEDYELWVRFARYSRLANLPRVLVRYRFHPANTSSRFRHEQQIAAAKIRHIHRTNLGLEPRPGDAALHRQLFDMRFEGDLPELTAAGIWLSKLYRVGVRRCRQNPVSTFLEFNKLWYSACGRLADHGLKVFAQFLRQPFGFLGNPAYTLKLAYRCWRRIRIALEHHHHHH | not soluble
9 | GMTGKISALDLASGELSEPTKAYFAKCEEKLGLVPNVLKAYAFDDKKLRAFTDIYNDLMLGESGLSKLDREMIAVAVSSINHCYYCLTAHGAAVRQLSGDPALGEMLVMNFRAADLSPRQTAMLEFAVKLTEEPAKIVEADRAALRKAGFSDRDIWDIASTAAFFNMSNRVAAAIDMRPNDEYHAMAR | soluble
10 | MGSDKIHHHHHHMTKTDPAPMAPPPRGEEEEEEEEDEPVPEAPSPTQERRQKPVVHPSAPAPLPKDYAFTFFDPNDPACQEILFDPQTTIPELFAIVRQWVPQVQHKIDVIGNEILRRGCHVNDRDGLTDMTLLHYACKAGAHGVGDPAAAVRLSQQLLALGADVTLRSRWTNMNALHYAAYFDVPVLVRVLLKGARPRVVNSTCSDFNHGSALHIAASSLCLGAAKCLLEHGANPALRNRKGQVPAEVVPDPMDMSLDKAEAALVAKELRTLLEEAVPLSCALPKVTLPNYDNVPGNLMLSALGLRLGDRVLLDGQKTGTLRFCGTTEFASGQWVGVELDEPEGKNDGSVGGVRYFICPPKQGLFASVSKISKAVDAPPSSVTSTPRTPRMDFSRVTGKGRREHKGKKKTPSSPSLGSLQQRDGAKAEVGDQVLVAGQKQGIVRFYGKTDFAPGYWYGIELDQPTGKHDGSVFGVRYFTCPPRHGVFAPASRIQRIGGSTDSPGDSVGAKKVHQVTMTQPKRTFTTVRTPKDIASENSISRLLFCCWFPWMLRAEMQS | not soluble
11 | MGSDKIHHHHHHMNTEHAAYQIADELGGLELLNAHYHKQNFSRHTHEGYTVGVIETGAQRFYRTGGNHVAPKHSIILVNADEVHNGCSATEGGWSYRAMYPVPAQFAGINSERAANSGAPYFPEPVVYDPELAELLRLTFTTLDTSDNRLLRESLVYSSLTQLMARHGKHRPSDNLAAMAKPALALVKSFIDDHPAADISLEELATLAGLSPYYLLKQFQRYYGLPPHAYQIQARVRLAKGKIKQGTRLLDVALDCGFHDQSHLNRHFKKTVGVTPGQFAKEIGRNIIQA | not soluble
12 | MQFHAVYQNNDTKANLDFALNISTINFATLQELQNSFDLQGSDLTAGLFYKYSVNKLTSGTNDLTTIAKTALGENIIQKQVSLTQSIIKPRLEAAKTQYKQDIIAPFAKERQAALAQHL | not soluble
13 | MEKNGLFSQRIRLRHLHTFVAVAQQGTLGRAAETLNLSQPALSKTLNELEQLTGTRLFERGRLGAQLTVPGEQFLTHAVKVLDALNTAGQALNRKEDASADVVRVGALPTAALGILPAAIGRFHQQQKSTSLQVATMNNTMLLAGLKSGEIDLGIGRMSDPELMGGLNYELLFLESLKLVVRPGHPLLQETITLSRVMEWPVVVSPKGTVPRQNAEALLQSQGCKMPAGCIETLSASLSRQLTVDYDYVWFVPSGAVKEDLRQATLVSLPVPTQSAGEPIGILTRVDIPLSTGAQMLIAAIRKSMPL | not soluble
14 | MTKSLFRQSFLTDTLDVHIDVAPAEQVLSNGVQLKLYQRGVLEVIPENPTQETKNIIISCGIHGDETAPMELVDSIIKDIESGFQKVDARCLFIIAHPESTLAHTRFLEENLNRLFDEKEHEPTKELAIADTLKLLVRDFYQDTEPKTRWHLDLHCAIRGSKHYTFAVSPKTRHPVRSKALVDFLDSAHIEAVLLSNSPSSTFSWYSAENYSAQALTMELGRVARIGENALDRLTAFDLALRNLIAEAQPEHLSKPCIKYRVSRTIVRLHDDFDFMFDDNVENFTSFVHGEVFGHDGDKPLMAKNDNEAIVFPNRHVAIGQRAALMVCEVKTRFEEGELVYDLEHHHHHH | soluble
15 | MIFRFGFVSNAMSLWDASPAKTLTFARYSKLSKTERKEALLTVTKANLRNTMRTLHYIIGHGIPLYRFSSSIVPLATHPDVMWDFVTPFQKEFREIGELVKTHQLRTSFHPNQFTLFTSPKESVTKNAVTDMAYHYRMLEAMGIADRSVINIHIGGAYGNKDTATAQFHQNIKQLPQEIKERMTLENDDKTYTTEETLQVCEQEDVPFVFDFHHFYANPDDHADLNVALPRMIKTWERIGLQPKVHLSSPKSEQAIRSHADYVDANFLLPLLERFRQWGTNIDFMIEAKQKDKALLRLMDELSSIRGVKRIGGGALQWKS | not soluble
16 | MSLKNTFVYQAEKPVIKLLQITDPHLFKDESAELLGVNTQASFAQVLKEIQQENNEFDVILATGDLVQDSSDEGYIRFVEMMKPFNKPVFWIPGNHDFQPKMAEFLNQPPMNAAKHLLLGEHWQALLLDSQVYGVPHGQLSQHQLDLLKETLGKNPERYTLVVLHHHLLPTNSAWLDQHNLRNSHELAEVLAPFTNVKAILYGHIHQEVNSEWNGYQVMATPATCIQFKPDCQYFSLDTLQPGWREIELHSDGSIRTEVKRIQQAEFFPNMQEEGYEGGSHHHHHH | soluble
17 | MLKQSGKLRADATPAEVEQAVRDYLRQKAIHMPRGKGELYDKEAKRAEAMQDGQQTNGVLNGKGKKLGQSKTASVPSVKPEPWNGGKRVDRVLVLLIEYPDFPHNNIQPTETDMYYKDYTREHYEDMIFGGDDGYYDGPNGEKLISVKKYYEEQSGGSYSIEGKVAGWYQAKYPAKYYGGNVPAPDGNDANPRALVREALAAAAKDPSINLREFDQEDRYDLDGDGNYREPDGLIDHLMIIHSSVGEEAGGGSLGGAAIWSHRWNLGSVYRIPNTTTDVPYWRGQLAAYDYTIEPADGAAGVFAHEYGHDLGLPDEYDTIYSGLGEPIAYWSIMSSGSWAGRIPGTEPTGFSAWAKQFLQSTMPGSNWLSGTTVEWNEVTQNGVEVVLDEASTKGTNNDAVRINLLKKETVVTIPPSGAYAYFSGSGNNLDHTMSTTIDLTGASKATLAFDTWYAIEKDWDYGAVEVKPHGSNEWTTIQGNITTTNNPYGQNPGNGITGTSNGWVKAEFDLSAYAGQTIDLRFHYITDVAVSEAGWYFDNIQVTADGAAVLADGAEGDSSFVMTGFEKSNGKRYSDHYYLLEWRNHRGVDEGLAHILRGGRLLSYDPGLVVWYVDEGYDNNWTGVHPGEGFLGVVDADQHTLKWSGNTTASTRYQVHDAAFSLQKGASFRVAINGSQLIDNDTSPTPVFDDSRSYDNKGAVDAGRNVPNYGLKIRVIGESADRTAARVLIYR | not soluble
